This is an account of results in patent US20260103529A1, “Amino Acid Sequences Directed Against the Melanocortin 4 Receptor and Polypeptides Comprising the Same for the Treatment of MC4R-Related Diseases and Disorders” (Confo Therapeutics N.V., priority 2022, published 2026).

The target of the experiment is human wild type MC4R (Homo sapiens, UniProt P32245). The experiment in a line: cAMP signaling assay (Lance Ultra HTRF). Format: cell-based. Also noted: double Twin Strep tag; expressed in transfected cells; host or cells: HEK293. The settings on record: purified nanobodies, human MC4R-overexpressing HEK293 cells, read-out: potencies, MC4R-mediated dose-dependent cAMP accumulation. The protocol: To confirm MC4R activation, dose-dependent nanobody-induced cAMP signaling was assessed (Lance Ultra HTRF). […] Binding of pN162 to the human melanocortin receptor subtypes MC1R, MC2R, MC3R, MC4R or MC5R transiently expressed as Flag-tagged receptors in HEK293T cells was assessed by flow cytometry.
Sequence of human wild type MC4R (P32245 whole entry): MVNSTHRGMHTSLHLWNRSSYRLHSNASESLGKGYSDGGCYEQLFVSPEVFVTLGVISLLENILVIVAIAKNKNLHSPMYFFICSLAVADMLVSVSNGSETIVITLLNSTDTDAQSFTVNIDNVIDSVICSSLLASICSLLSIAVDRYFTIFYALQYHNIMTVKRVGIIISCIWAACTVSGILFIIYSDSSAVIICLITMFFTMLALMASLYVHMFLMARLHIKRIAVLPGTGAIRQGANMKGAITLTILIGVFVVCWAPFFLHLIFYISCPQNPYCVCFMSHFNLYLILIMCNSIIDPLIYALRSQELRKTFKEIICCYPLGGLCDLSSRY

B1: pN161: agonistic anti-MC4R VHH, SEQ ID NO: 314 (protein)
VHH: QVQLVESGGGLVQAGGSLRLSCAASGSISRTNGMGWYRQAPGKQRELVAAITTGGSTNYANSAKGRFTISRDNAKNTVYLQMNSLKPEDTAVYYCNARYGSSSFRWGDFEVWGQGTQVTVSS
modifications: PN0161
As to B1, the EC50 was 393 nM.

B2: pN152: agonistic anti-MC4R VHH, SEQ ID NO: 183 (protein)
VHH: QVQLVESGGGLVQPGGSLKLSCAASGSISSKSDWGWYRQAPGKERELVAQITSGGNLKYASAVTGRFTISRDNAKNTVNLLMSRLKPEDTAIYFCNARTWRLVRYYDYWGQGTQVTVSS
modifications: pN0152
Take B2: the EC50 was determined as 0.7 nM.
